Data set [1] concerns the target T1, dStau S581A Q718A (Drosophila melanogaster, UniProt P25159 570-786, S581A;Q718A).
T1 sequence: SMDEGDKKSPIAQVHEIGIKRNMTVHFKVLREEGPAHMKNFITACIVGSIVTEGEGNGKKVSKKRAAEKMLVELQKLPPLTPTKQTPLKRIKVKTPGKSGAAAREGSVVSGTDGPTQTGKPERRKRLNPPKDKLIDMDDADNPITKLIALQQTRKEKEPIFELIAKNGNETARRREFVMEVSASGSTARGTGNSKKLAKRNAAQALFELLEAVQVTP
Nature of the data set: fluorescence anisotropy; FA: 10 nM 5'-FAM RNA, 20 mM Hepes pH 7.5, 150 mM KCl, RT (19-21 C); EMSA: 1 uM RNA, same buffer, 45 min on ice. To be noted: protein: recombinant; label: 5'-6-FAM; hairpin.

Data set [2] has as its target T2, dStau dsRBD3 backbone mutant (Drosophila melanogaster, UniProt P25159 570-786, H606A;K608A;K628E;K629A).
T2 sequence: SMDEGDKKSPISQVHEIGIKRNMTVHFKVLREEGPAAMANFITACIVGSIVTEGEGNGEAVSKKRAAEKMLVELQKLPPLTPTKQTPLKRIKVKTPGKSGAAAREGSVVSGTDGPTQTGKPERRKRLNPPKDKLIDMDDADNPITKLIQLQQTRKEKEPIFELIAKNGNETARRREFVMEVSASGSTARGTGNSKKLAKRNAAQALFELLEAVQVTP
The data set is described as above. To be noted: protein: recombinant; label: 5'-6-FAM; hairpin.

Data set [3] has as its target T3, dStau dsRBD4 backbone mutant (Drosophila melanogaster, UniProt P25159 570-786, R742A;R744A;K764E;K765A;K768A).
T3 sequence: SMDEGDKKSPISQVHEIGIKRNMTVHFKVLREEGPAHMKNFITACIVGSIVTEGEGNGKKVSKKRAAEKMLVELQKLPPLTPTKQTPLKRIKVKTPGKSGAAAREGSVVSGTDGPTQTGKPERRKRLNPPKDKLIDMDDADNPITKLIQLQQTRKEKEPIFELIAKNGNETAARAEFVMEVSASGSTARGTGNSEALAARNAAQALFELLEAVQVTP
The description is as above. As to conditions: protein: recombinant; label: 5'-6-FAM; hairpin.

Data set [4] concerns the target T4, hStau1 FL (Homo sapiens, UniProt O95793 1-577). The description is as above. To be noted: protein: recombinant, tags: tag removed or His/GST not specified, chain copies: 2.
The target of data set [5] is hStau1 base-contact mutant (Homo sapiens, UniProt O95793 182-360, S187A;P211A;Q293A). Described as above. To be noted: protein: recombinant, blunt.
Chain of hStau1 base-contact mutant (O95793 182-360 S187A/P211A/Q293A): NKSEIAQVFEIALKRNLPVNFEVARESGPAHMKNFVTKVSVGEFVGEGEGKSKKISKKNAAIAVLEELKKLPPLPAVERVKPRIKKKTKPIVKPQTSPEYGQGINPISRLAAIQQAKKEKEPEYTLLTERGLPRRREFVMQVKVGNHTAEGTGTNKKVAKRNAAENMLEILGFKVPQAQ
For data set [6], the target named is hStau1 dsRBD3-4 interface mutant (Homo sapiens, UniProt O95793 182-360, N197A;R342A). Kind of data set: fluorescence anisotropy; no effect on affinity vs wt; FA: 10 nM 5'-FAM RNA, 20 mM Hepes pH 7.5, 150 mM KCl, RT (19-21 C); EMSA: 1 uM RNA, same buffer, 45 min on ice. To be noted: protein: recombinant; label: 5'-6-FAM on sense strand; blunt, two G-U wobbles. Background: Fluorescence polarisation rises when a labelled molecule tumbles more slowly, as on binding a larger partner.
Chain of hStau1 dsRBD3-4 interface mutant (O95793 182-360 N197A/R342A): as the sequence (O95793 182-360 S187A/P211A/Q293A) above, with A6S, N16A, A30P, A112Q, R161A counted along it

The target in data set [7] is GST-hStau1 dsRBD3 (Homo sapiens, UniProt O95793 182-255). Kind of data set: fluorescence anisotropy; FA: 10 nM 5'-FAM RNA, 20 mM Hepes pH 7.5, 150 mM KCl, RT (19-21 C); EMSA: 1 uM RNA, same buffer, 45 min on ice. As to conditions: protein: recombinant; tags: N-terminal GST; label: 5'-6-FAM on sense strand; blunt, two G-U wobbles.
Data set [8] addresses GST-hStau1 dsRBD4 (Homo sapiens, UniProt O95793 284-358). The description is as above. As to conditions: protein: recombinant; tags: N-terminal GST; label: 5'-6-FAM on sense strand; blunt, two G-U wobbles.
Data set [9] concerns the target hStau1 dsRBD3-4 (Homo sapiens, UniProt O95793 182-360). Described as above. As to conditions: protein: recombinant; tags: untagged; chain copies: 2; label: 5'-6-FAM on sense strand; blunt, two G-U wobbles.
In data set [10] the target is hStau1 deltaC (SSM and dsRBD5 removed) (Homo sapiens, UniProt O95793 1-360). Described as above. As to conditions: protein: recombinant; label: 5'-6-FAM on sense strand; blunt, two G-U wobbles.
The target in data set [11] is hStau1 deltaN (dsRBD2 removed) (Homo sapiens, UniProt O95793 182-577). The data set is described as above. As to conditions: protein: recombinant; label: 5'-6-FAM on sense strand; blunt, two G-U wobbles.
In data set [12] the target is GST-hStau1 dsRBD3-4 (Homo sapiens, UniProt O95793 182-360). The description is as above. To be noted: protein: recombinant; tags: N-terminal GST; label: 5'-6-FAM on sense strand; blunt, two G-U wobbles.
In data set [13] the target is hStau1 dsRBD4 backbone mutant (Homo sapiens, UniProt O95793 182-360, R315A;R317A;K337E;K338A;K341A). The description is as above. To be noted: protein: recombinant; label: 5'-6-FAM on sense strand; blunt, two G-U wobbles.
Data set [14] addresses hStau1 dsRBD3 backbone mutant (Homo sapiens, UniProt O95793 182-360, H212A;K214A;K234E;K235A;K238A). The data set is described as above. As to conditions: protein: recombinant; label: 5'-6-FAM on sense strand; blunt, two G-U wobbles.
The target of data set [15] is hStau1 dsRBD3-4 short linker (Homo sapiens, UniProt O95793 182-253+=GSSGSGSS+284-360, internal_change). The description is as above. To be noted: protein: recombinant; label: 5'-6-FAM on sense strand; blunt, two G-U wobbles.
For data set [16], the target named is hStau1 dsRBD3-4 linker charge mutant (Homo sapiens, UniProt O95793 182-360, K266A;K267E;K268A;K270A). The data set is described as above. To be noted: protein: recombinant; label: 5'-6-FAM on sense strand; blunt, two G-U wobbles.
Data set [17] addresses T4, hStau1 FL. The data set is described as above. As to conditions: protein: recombinant; tags: tag removed or His/GST not specified; chain copies: 2; label: 5'-6-FAM; blunt.
Data set [18] concerns the molecule itself. Nature of the data set: SEC + SEC-MALS; apo proteins on Superdex 200 Increase 10/300 GL with MALLS detector; 20 mM Tris-HCl pH 7.5, 150 mM KCl, RT; 200 ug FL, 350 ug hStau1 182-577 injected. In general terms: Size exclusion chromatography separates by hydrodynamic size, large species first.

B1: bcd III (structured_RNA)
RNA: CGCUAUUCGCCUUAGAUGUAUCUGGGUGGCUGCUCCACUAAAGCCCGGGAAUAUGCAACCAGUUACAUUUGAGGCCAUUUGGGCUUAAGCG
As to B1, the binding signal is around 3.5 fold reduction vs wt in data set [1], ~10 fold reduction vs wt (almost) in data set [2] and below 3 fold reduction vs wt in data set [3].

On to UGAGUGCCAGAAGCUGCCUC (ssRNA) [ssARF1 (sense strand)], for which the Kd – broadly, a measure of binding affinity in units of concentration – in [4] (label: 5'-6-FAM, single strand) worked out at 96 ± 27 nM.

B2: ARF1 SBS (dsRNA)
RNA 1: UGAGUGCCAGAAGCUGCCUC
RNA 2: GAGGCAGUUUCUGGUACUCA
On to B2, for which the binding signal in [5] (label: 5'-6-FAM on sense strand, two G-U wobbles) is around 3 fold reduction vs wt; in data set [7], ~10 fold reduction vs tandem dsRBD3-4; in data set [8] it was ~1000 fold reduction vs tandem dsRBD3-4; in data set [13], around 4.5 fold reduction vs wt; in data set [14], around 8 fold reduction vs wt; in data set [15], around 8 fold reduction vs wt. Also, the binding signal in data set [16] is around 3 fold reduction vs wt. Further, the binding result in [6] was “binds”. Also, the Kd in [9] is 14 ± 4 nM; in data set [4] (label: 5'-6-FAM on sense strand, blunt, two G-U wobbles), 6 ± 1 nM; in [10], 10 ± 2 nM; in [11], 9 ± 3 nM; in data set [12], 9 ± 2 nM.

B3: dsAU (dsRNA)
RNA 1: UAUUAUAUAAAUUAUAAAAU
RNA 2: AUUUUAUAAUUUAUAUAAUA
Turning to B3, the binding signal was ~4 fold reduction vs ARF1 SBS in [17] and ~1.5 fold reduction vs wt on dsAU in data set [5] (label: 5'-6-FAM).

B4: hStau1 aa 182-577 (N-terminal deletion removing dsRBD2) (domain or fragment, human, UniProt O95793 182-577, looked up)
chain: NKSEISQVFEIALKRNLPVNFEVARESGPPHMKNFVTKVSVGEFVGEGEGKSKKISKKNAAIAVLEELKKLPPLPAVERVKPRIKKKTKPIVKPQTSPEYGQGINPISRLAQIQQAKKEKEPEYTLLTERGLPRRREFVMQVKVGNHTAEGTGTNKKVAKRNAAENMLEILGFKVPQAQPTKPALKSEEKTPIKKPGDGRKVTFFEPGSGDENGTSNKEDEFRMPYLSHQQLPAGILPMVPEVAQAVGVSQGHHTKDFTRAAPNPAKATVTAMIARELLYGGTSPTAETILKNNISSGHVPHGPLTRPSEQLDYLSRVQGFQVEYKDFPKNNKNEFVSLINCSSQPPLISHGIGKDVESCHDMAALNILKLLSELDQQSTEMPRTGNGPMSVCGRC
notes: human Staufen1 (hStau1), GenBank AAD17531.1, aa 182-577 (dsRBD3, dsRBD4, TBD, SSM, dsRBD5); GST was kept or cleaved; also called hStau1^182-577
As to B4, the stoichiometry N – broadly, a count of units in the complex or per binding partner – in data set [18] amounted to 2.

B5: human Staufen1 full-length (natural protein, UniProt O95793 1-577, looked up)
chain: MSQVQVQVQNPSAALSGSQILNKNQSLLSQPLMSIPSTTSSLPSENAGRPIQNSALPSASITSTSAAAESITPTVELNALCMKLGKKPMYKPVDPYSRMQSTYNYNMRGGAYPPRYFYPFPVPPLLYQVELSVGGQQFNGKGKTRQAAKHDAAAKALRILQNEPLPERLEVNGRESEEENLNKSEISQVFEIALKRNLPVNFEVARESGPPHMKNFVTKVSVGEFVGEGEGKSKKISKKNAAIAVLEELKKLPPLPAVERVKPRIKKKTKPIVKPQTSPEYGQGINPISRLAQIQQAKKEKEPEYTLLTERGLPRRREFVMQVKVGNHTAEGTGTNKKVAKRNAAENMLEILGFKVPQAQPTKPALKSEEKTPIKKPGDGRKVTFFEPGSGDENGTSNKEDEFRMPYLSHQQLPAGILPMVPEVAQAVGVSQGHHTKDFTRAAPNPAKATVTAMIARELLYGGTSPTAETILKNNISSGHVPHGPLTRPSEQLDYLSRVQGFQVEYKDFPKNNKNEFVSLINCSSQPPLISHGIGKDVESCHDMAALNILKLLSELDQQSTEMPRTGNGPMSVCGRC
notes: human Staufen1 (hStau1), GenBank AAD17531.1, codon optimized; full-length protein; the truncation 182-577 implies a length of 577 aa; Constructs carried either an N-terminal GST tag or a His tag; The His tag was removed by TEV; the GST tag was either kept (elution with glutathione) or cleaved by TEV; also called hStau1 FL; hStau1
As to B5, the “stoichiometry N” value in data set [18] is 2.

(Values after paper PMC6238398, “The crystal structure of Staufen1 in complex with a physiological RNA sheds light on substrate selectivity” (Life Science Alliance, 2018).)
